Literature values, collected in paper PMC5382571.
Read-outs that look alike come from different tables or passages of the source.

Key:
[1] = molecular target: PCNA (Homo sapiens) (UniProt P12004)
[2] = molecular target: PCNA (Homo sapiens) (UniProt P12004); remark: listed apart in the source

Sequence of UniProt P12004 (P12004 whole entry): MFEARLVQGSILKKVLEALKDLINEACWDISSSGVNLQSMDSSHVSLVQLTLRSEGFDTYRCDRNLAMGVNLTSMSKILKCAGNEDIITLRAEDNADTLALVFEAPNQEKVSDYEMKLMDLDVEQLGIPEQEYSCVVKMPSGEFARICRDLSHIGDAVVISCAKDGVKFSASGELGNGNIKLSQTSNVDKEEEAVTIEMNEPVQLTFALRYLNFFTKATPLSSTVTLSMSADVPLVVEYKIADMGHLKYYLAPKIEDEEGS

Substance	Kd [1] [nM]	Kd [2] [nM]
RFC (from UniProt P35251)	0.2	–
DNA polymerase delta (from UniProt P28340)	–	< 10
